Laboratory results published in patent US20050048548A1.

Columns and labels:
[1] = target: MBP-BirA fusion (E. coli biotin ligase / biotin holoenzyme synthetase with N-terminal maltose binding protein) (E. coli) [MBP: P0AEX9]; assay: phage ELISA on plate-coated MBP-BirA, anti-M13-HRP detection; reference: same phage unmodified
[2] = target: streptavidin (Prozyme) (UniProt P22629); assay: phage ELISA on plate-coated streptavidin, both with and without 10 mM DTT; reference: Ser-Ser phage
[3] = target: streptavidin (Prozyme) (UniProt P22629); assay: phage ELISA on plate-coated streptavidin, anti-M13-HRP detection

streptavidin (Prozyme), sequence (P22629 37-163 limits assumed): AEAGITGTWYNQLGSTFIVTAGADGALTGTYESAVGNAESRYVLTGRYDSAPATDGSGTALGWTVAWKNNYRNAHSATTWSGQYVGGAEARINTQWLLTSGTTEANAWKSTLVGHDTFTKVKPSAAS

Substance | fold increase of affinity, biotin-modified against unmodified phage [1] | further results
biotin-modified M13 phage clone displaying VPKQSecCQN (peptide) | 5 fold | –
biotin-modified M13 phage clone displaying VTAKSecCYP (peptide) | 5 fold | –
biotin-modified M13 phage clone displaying CLQPSecYGS (peptide) | 5 fold | –
M13 phage displaying the selenosulfide constrained sequence Cys-HPQGPT-Sec (peptide) | – | tighter binding against the linear Ser-Ser sequence (orders of magnitude) [2]: 2
M13 phage displaying the disulfide constrained sequence Cys-HPQGPP-Cys (peptide) | – | reduction of binding in 10 mM DTT against no DTT (orders of magnitude) [3]: > 2
